The results in this text go back to patent publication US20120263651, “Single Stranded DNA Aptamers Binding NF-kB/RelA” (Board of Regents, The University of Texas System, published 2012).

Data set [1] concerns the target GST-RelA(1-313) (NF-kB p65, DNA binding and IkBa interactive domain) (UniProt Q04206 Q04206:1-313). Briefly: filter; variable region alone sufficient for binding; data not shown; competition and direct binding. Conditions: tags: GST; chain copies: 2. As to the method:
Binding Studies: (i) Nitrocellulose filter binding assay: Filter binding assays were performed as described (22). Initially, 70 mer oligonucleotides were commercially synthesized (IDT) to include the proximal 20 bases of each flanking primer sequence and the 30 base variable region. DNAs were 5′ end-labeled with ³²P-ATP using T4-PNK (New England Biolabs) and purified by glass bead binding using a MERMAID kit (MP Biomedicals LLC). Protein and labeled aptamer were incubated in ABB and filtered through 25 mm nitrocellulose filters. The bound material was counted in a Beckman Liquid Scintillation counter. For competition studies, binding reactions (100 μL) in ABB were incubated at RT for 20 min with 100 fold excess (10 picomoles) of unlabeled competitor DNAs, followed by the addition of 0.1 picomole of ³²P-labeled KB55 probe. After 30 min of incubation, reactions were filtered and counted. The KB55 sequence is […] (SEQ ID NO: 3) and self anneals to form a duplex. Upper and lower strands of IL8KB are […] (SEQ ID NO: 4) and […] (SEQ ID NO: 5), respectively.
Isolation of RelA(1-313) binding single stranded aptamer: Purified recombinant GST-RelA(1-313), encoding the DNA binding and IκBα interactive domain, was used to screen for high affinity ssDNA aptamers by repeated rounds of in vitro binding and enrichment. […]

Data set [2] has as its target endogenous RelA in A549 cells (Homo sapiens, UniProt Q04206 Q04206:1-551). The data set is described as follows: cell_activity; 4 uM transfected aptamer; control induction 5-fold (Gro-beta) and nearly 7-fold (TNFAIP3). As to the method: A549 cells transfected with nothing (−), 4 μM P028A1 or P028F4 aptamers were stimulated in the absence (Con) or presence of TNF. (1 h, 30 ng/ml). Total RNA was extracted and subjected to Q-RT-PCR for Gro-β (top panel) and TNFAIP3/A20 (bottom panel). Data are normalized to GAPDH and expressed as fold change relative to uninfected control. Each bar is mean±SD of triplicate determination. * p<0.05 and (4B) ChIP assay. A549 cells transfected with nothing (−), P028A1 (4 μM) or P028F4 (4 μM) were stimulated in the absence (Con) or presence of TNF (1 h, 30 ng/ml). Two-step ChIP was preformed using pre-immune IgG (IgG), or anti-RelA as the primary Abs. Immunoprecipitated DNA was subjected to quantitative PCR using primers for Groβ (top) or TNFAIP3/A20 promoters (bottom) as indicated. Data are shown as fold increase in signal relative to unstimulated A549 cells (X, ±SD of technical replicates). The study was repeated twice with similar results;
Aptamer P028F4 inhibits TNFα-induced endogenous NF-κB dependent gene expression: Earlier studies selectively inhibiting NF-κB/RelA translocation identified Groβ and TNFAIP3/A20 as part of a TNFα inducible gene network downstream of NF-κB (3,4,39). […] Relative changes in Groβ and TNFAIP3/A20 transcripts were determined by Q-RT-PCR. […]

Sequence of endogenous RelA in A549 cells (Q04206 whole entry, one chain of several): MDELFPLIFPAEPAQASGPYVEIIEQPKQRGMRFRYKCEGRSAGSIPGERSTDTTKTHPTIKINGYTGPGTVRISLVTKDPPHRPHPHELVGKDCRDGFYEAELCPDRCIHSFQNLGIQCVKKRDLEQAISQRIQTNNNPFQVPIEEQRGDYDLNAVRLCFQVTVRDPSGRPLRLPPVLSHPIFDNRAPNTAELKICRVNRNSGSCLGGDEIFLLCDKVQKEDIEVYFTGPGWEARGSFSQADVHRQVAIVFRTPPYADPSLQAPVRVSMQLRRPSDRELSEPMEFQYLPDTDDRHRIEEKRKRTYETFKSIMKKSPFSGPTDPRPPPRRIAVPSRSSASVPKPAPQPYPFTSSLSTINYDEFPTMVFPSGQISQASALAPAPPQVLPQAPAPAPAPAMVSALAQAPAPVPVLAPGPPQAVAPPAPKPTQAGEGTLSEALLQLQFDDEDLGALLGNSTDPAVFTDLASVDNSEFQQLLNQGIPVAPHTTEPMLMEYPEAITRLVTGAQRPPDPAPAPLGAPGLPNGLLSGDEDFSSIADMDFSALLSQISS
Sequence of GST-RelA(1-313) (NF-kB p65, DNA binding and IkBa interactive domain) (Q04206 1-313, one chain of several): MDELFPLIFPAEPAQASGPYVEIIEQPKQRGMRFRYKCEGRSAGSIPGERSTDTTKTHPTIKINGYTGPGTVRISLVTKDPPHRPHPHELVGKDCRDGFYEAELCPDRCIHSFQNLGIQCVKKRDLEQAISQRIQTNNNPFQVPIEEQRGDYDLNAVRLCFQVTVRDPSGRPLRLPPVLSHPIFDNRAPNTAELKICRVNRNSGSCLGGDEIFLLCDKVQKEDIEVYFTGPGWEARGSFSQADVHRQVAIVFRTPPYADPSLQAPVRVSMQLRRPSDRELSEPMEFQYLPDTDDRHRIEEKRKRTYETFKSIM

As to GCGGGACAGGAGAAACACGGCATGTCAGCG (ssDNA) [P028F4 30-base variable region], the binding result in data set [1] is listed as “binds”.

B1: P028F4 (ssDNA)
DNA: GGGTAACCTTGAGTCACGAATTCAAGCGGGACAGGAGAAACACGGCATGTCAGCGAAGGTACCCAACTTACAGCTTCTGG
As for B1, the activity in data set [2] was < 2 fold induction of Gro-beta and TNFAIP3 mRNA.
